Target: pY213 peptide (14-residue Abi1 peptide containing phosphorylated tyrosine 213) (human)
Test: SPR (Biacore 3000), biotinylated pY213 on streptavidin chip, GST-Abl SH2 injected, 1:1 model

## GST-Abl SH2 domain fusion protein (from UniProt P00519 146-236)
  Kd: 33.2 nM
